The text below walks through data of patent US20160271244A1.

Where “and” joins values, the source holds several entries; their conditions need not be identical. Equal values may be shown once.

Take 4E10 (antibody): in the test with JRFL APA, the Kd was determined as 1380 nM, the koff worked out at 0.001 s⁻¹ and the kon was determined as 720 M⁻¹ s⁻¹. In the test with JRFL APA DEG, the Kd was 140 nM and 150 nM and 180 nM; the dissociation rate constant (koff) turned out to be 0.001 s⁻¹; the kon was 6800 M⁻¹ s⁻¹ and 6600 M⁻¹ s⁻¹ and 5500 M⁻¹ s⁻¹.
